Experiment: soluble on expression in E. coli; label from the status in PepcDB or PDB records

| Sequence | soluble on expression in E. coli |
| --- | --- |
| MSVAVATLHAAASGAVLRRRRTYIHPQQPAADVCPQACTRICPPPPLPHGLRVRGGHLVRYTACVPAHTGSMSASSTVSDRRVCIFFDCRVAGDGKGYEELRQTVYAQCSQLLTLSYLHYQRSGTTLSATVHLVTHTRVESFATPFCATSTDHPIDSGAAGVISGLRALAAAQPDHSVNACGAAIFGNRMESVLPHVQRALGGSQQRHQLILFCSSYVSHTEATQSLSGLCLDASPHQRLRCILVDWEAVCVTVGELASNVRVYRCSRSARQLQAAMQEILSLFLLPDVRSSRRLGLQLGLQAVPVIATISHYGAFLDGRDTIGSVVATDRASSAAAPMAGGVMHQRLAETNHRHNRANAASVVERDDRDPWSTLHLRAVLEADNIDESFLMGDTWTLALDTSAASTSTLTSSSAPSWPCTASTVALWHAFCNAFLGDALVFTGEETGIEAHRHAMQRHHHFVAYFMPDRTMRVREIVPPELRFVPLPAFPTREGLREQKAYTTEMQRLREQLVSHCACASFSLDALLSSGGHGAASTP | not soluble |
| MSVDTKIIGSFLQLTNYFAENYPAPCDLISSLTDLWFKQGGMIARMMSCDIQEFKSSDVFYEVLYRKIRVGNSLLADTLDPKMAAEGNLFEICKFYSLYLEHLRKDQSELLTIVLERLASQSDFNSTVILDMFTFFDKLYSEGNVGDWWDFLLGSEDASMVFKTPKKTNRPSNAFSTPTATAKRLPMYGSSTCRSPIAEVVDSPTMKYMRSDRELKTAKKKLVDMEHMVDELESENRNLTEKGRELKLIIDSLKSDVTNKRDTAKSSQQREQELSNILEEKEKESAQLLQQLEESRAALRDEQRHLEHQEAENGKIVEQLKTVSELNEKLTMQVKDLQDASENELASFRQKEKELIDELRMATNENVDLEELLKGVTNGKAGLQFENNCLVGKLEELSFVSDRNKQDADNARAQLEEEREKHRLATEKLHQENIDYMKTSDSRIEMILEESKTRKMMDESTIERLRLDLDNEKSYKKNLEDLLNDLNQRALNSEMANHLQKEGIQSVETYLQMAKKRIEHLELELSATNATIEFQSQQLDRAGNMLITEQEIRNQTSVQYKERTSALENQLSQKDAEIENLKRDLQQLVTKHESELKEQHEQLNVHHQSQQKLHSEAEKLRREHEALGKKNCFLGERCKIFVKDSRSGVMKRSTSSDSLAEFLSKGNDNETLEEMMRLIAQTPRKSVAFSFDLDEDETLKGTPIGFRTNLNETRESIASDEFFDRFPSTFPTRAAPRESVVSIGEPKNQFSPLGTSKDRVKTLTSRNEKVKPHLKSSYATEMGNVTSPSADEENVRKGKSKSIFAKLKGPRRDSFFFGKKKQAE | not soluble |
| MSVEEAALALWAKSGNPFHPLLAHMLDTAAVALAVLRMEPPRTRALYAEDWGLPEEGALAWAAALVGLHDLGKASPVFQAGWEEGKERVQRAGLPFGELLDWVAHGVFTELFLRRLLKEKGLPERAANDLAAALGAHHGFPANAEEKSRARRHLRTEDPLWKEARRWLLEEVFRRLGAPLPPSQGNGEARPEAVLRVMALASFADWVASDPSLFPYGRDPRRGDYLKEALRLAQEALNRLGWPAFAKAQRREFGELFPYIPKPNALQESVPALLEGACTPVLLLVEAPMGMGKTEAALYAHHLLQAGLGHRGLYVALPTQATANGLFPRVRGFLERLGEGSRLELQLQHGTALLNPHYAGLLERAAPRQVGEEEEGGAVASAWFSARKRAMLAPYGVGTLDQALLGVLRVKHHFVRLWGLMNRVVVLDEVHAYDVYTSGLLQALLRWLRALGSSAVVMTATLPPSRRRALLEAWAGEEVEGQDLGPYPRVVLVGEGVKARSLPPAREVEVALEVLREVDVEPLAQRLKGALPGAVGAIVNTVDRAQDLYRALGEGTPLTLEELARRLGGISGGQAWEEVRQALPERGGEVVGKVLTDGTLVFLLHARFPAEERALRGSVVLALFGKGGPRPPRAILVATQVAEQSLDLDFDLLYTDLAPIDLLFQRSGRLHRHERPRPEEHARPRLLLGVPEDLDFGKPLYWDKVYEDYVLLATWRALSGRDRLRVPGDLEALLEEIYEGENPESFPEGLRERAKKSLKALQERRDREANTARRLSLSELDRLLAYWDEGALVAQERLEDDEEKAETQRLLTRLGDPSVAVVPLFRVGEGLFLDREGRRRAPLKGEVSREEAEALFRRAVRLSRFPLPQELLKEEPPPAWRKSGLLRGLRPLEVGRVFRSGERAFQVELDPELGVVYLPV | soluble |
| MSVIQNIIGRIAVLRGGKYSVEVDVATDEGFGRFTSPIDDNPMLHIAEARRAVSEVDEIIGPELIGFDASEQELIDSYLWEIDGTEDFSHIGANTALAVSTAIAKAAANSRDMPLYSYIGGTFATELPVPVLSFAQDDMFDYYLVVKDLLEVTDIIDATNKIREIVKEINLENLSKASEDVGVELGLEVALGIGMKKEMDIEKVLNLVEDYNVAYIKPIGPPELFLELIAGTHGVFIDGEYLFRTNSVLDRRYYNALSIKPINLGTLTDLYNFVNDVKAEKITPILAEAKYEPADETFPHIALGLRCPAMLISWSSIEKINELNRIAEELGERGRIITFEE | soluble |
| MSVNSIYTDREEIDSEFEDEDFEKEGIATVERAMENNHDLDTALLELNTLRMSMNVTYHEVRIATITALLRRVYHFIATQTLGPKDAVVKVFNQWGLLFKRQAFDEEEYIDLMNIIMEKIVEQSFDKPDLILFSALVSLYDNDIIEEDVIYKWWDNVSTDPRYDEVKKLTVKWVEWLQNADEESSSEEE | soluble |
| MSVRATVVKRTISGGKGKISEYCDGTKAVFHYQALFPIEKHEKGQPLSLEKDAFKSIDDTRKPWPHGYGKPLEIVFGKKFQLPVFEQCLKTMLVDEISQFDVECIDLVQYPFVSKKLRDLVKPCDGKHSHAHTTHMCAASIAQGTGYEELDELMKNPRPLRFVFHLLQVFEPDQYVHDSWQLDEDDKLKSVEALRQKGNELFVQKDYKEAIDAYRDALTRLDTLILREKPGEPEWVELDRKNIPLYANMSQCYLNIGDLHEAEETSSEVLKREETNEKALFRRAKARIAAWKLDEAEEDLKLLLRNHPAAASVVAREMKIVTERRAEKKADSRVTYSKMFQP | not soluble |
| MSVSLEQTLGFRIKVTNVLDVVTEGRLYSFNSSNNTLTIQTTKKNQSPQNFKVIKCTFIKHLEVIGDKPSFNSFKKQQIKPSYVNVERVEKLLKESVIASKKKELLRGKGVSAEGQFIFDQIFKTIGDTKWVAKDIIILDDVKVQPPYKVEDIKVLHEGSNQSITLIQRIVERSWEQLEQDDGRKGG | soluble |
| MSVTVDDKDVSLNMIRPFEILTLPIPAGVAGKSLVWRFINDYGAISQPLKKNL | not soluble |
| MSWFISRKDIAYISRGAKLLGCGGGGDTKTTQRLLESIMKEDDQINVLQYEDLTEQVVATVCFAGSPILYEEQLPRGDEGQMVFQEYQLKTNKKIDAVISAEIGGMNALIPLVVALQTGCAVVDGDGMGRAFPEFTMTTFYMHGLPISPLILLTRDGKQHLIEGAANDRIVRDNRQLLNMHGGFGHFICCGADANVVKNMMVSGTLKLAYRLGRAMEQDQLSAAAGWTAVEDEWENSIYGKPTLLIKGTVESVVRTFDQEQIVGELTIIGKQRFIGTTLTVSFHNEFIAVKKEGQYLVMVPDLIIIVNAKTFLPYTTNEIQRGMSVLIYAIPAPNVLRQKQMIDHVGPQAYGLDVPYEPFFLEHHHHHH | not soluble |
| MSWLRTELWTAEVVYTGFGTPMLRGALAVQGGFVVGQGSLEELRARFPEGEVVHKGLALLPPPVNAHTHLDLSLLPLYRGPFAGFLSHVVAHRERRGLEGAKRGLEELLASGVGAFADIVFKDEVMDFLLQESPLPGVAFYEVFAPEPSLAEEVYRAVRRKVEAWRRREGKVKVGLSPHAPYSVSPPLLKRLAEWARAEGLPLMVHAAESPEEVAFLLRGEGPLREVYGRFAKTPWTPPGTTPVRHLHALGVLGPTTLLVHGVQVDEEEVGLLAETGTKVVLCPRSNRNLEVGEAPLALYAKHGVELALGTDSRGSSPDLDVKNEARFLWGRAEPRLLVRALTRGGYRALGLPTPRLTRGTPLSLVHFL | soluble |
| MTAATATANGNHSIEDPVVMKVQAASPIQETDFFENLYQMECFRTGEFYLKSGQMTPIYIDLRRIMSSPRVLRMAAQAMCEKIVASNLKFDYVVGVPYAALPLATLVSDILNVPMLMKRKEAKAYGTKQLIEGVYQPGGTVLLVEDVVTSGESIRETAEAIRNENLLVTDAIAVLDRQQGATANLAEDNLNFLSFLTMEKILDGLITKNEMTEERKHEIIAHLAKPF | soluble |
| MTADWVVTFTFDADPSMETMDAWETQLEGFDALVSRVPGHGIDVTVYAPGDWSVFDALAKMAGEVMPVVQAKSPIAVQIISEPEHRLRAEAFTTPELMSAAEIADELGVSRQRVHQLRSTAGFPAPLADLRGGAVWDAAAVRRFAETWERKPGRPHTGTAKFAYSWAVGPAVGRSGKAPNVRWRVENPDKIRFVLRNIGDDIAEDVEIDLSRIDAITRNVPKKTVIRPGEGLNMVLIAAWGHPLPNQLYVRWAGQDEWAAVPLHPAH | soluble |
| MTAFAAASPRAAVRTGFDGLAISVATRAMMKNLDQNFDAILITGPTASGKSALALRLARERNGVVINADSMQVYDTLRVLTARPSDHEMEGVPHRLYGHVPAGSAYSTGEWLRDISGLLSDLRGEGRFPVIVGGTGLYFKALTGGLSDMPAIPDDLREGLRARLIEEGAAKLHAELVSRDPSMAQMLQPGDGQRIVRALEVLEATGKSIRDFQRASGPMIIDPERAQKFIVLPERPVLHDRINRRFEAMMDSGAVEEVQALLALNLAPDATAMKAIGVAQIADMLTGRMGAAEVIEKSAAATRQYAKRQMTWFRNQMGDDWTRIQPAAALEHHHHHH | not soluble |
| MTAFVHTLSDGMELTVEIKRRAKKNLIIRPAGTHTIRISVPPCFSVSALNRWLYENEAVLRQTLAKTPPPQTAENRLPESILFHGRQLALTAHQDTQILLMPSEIRVPEGAPEKQLALLRDFLERQAHSYLIPRLERHARTTQLFPAPSSLTSAKTFWGVCRKTTGIRFNWRLVGAPEYVADYVCIHELCHLAHADHSRAFWALTRRFAPYTPEAKQWLKIHGRELFALGLEHHHHHH | not soluble |
| MTAGVTTGAFYKHFTSKEALFEEIIQPHINALINMYNEEFAKYLLNLENIDIEKSWRENFNELDPFINYIFENKRIFDLVLFQSAGTKYQDIVEKITSFVTKKTVCCLDKLKTIGMINQNLVFNEEEIHFYIYSFYATFYDILKHSYSKEKTMLLTRRLYQFSVPGWIELLS | not soluble |
| MTAHPQEDHYKYKKVISIGVVSELTGLSQRQIRYYEERKLVFPDRSRGIRKYSFADVEQLMKIANQREEGVSTWEIRQEMTKELRERMLKGQMNAHFRRRS | not soluble |
| MTAIAPVITIDGPSGAGKGTLCKAMAEALQWHLLDSGAIYRVLALAALHHHVDVASEDALVPLASHLDVRFVSTNGNLEVILEGEDVSGEIRTQEVANAASQVAAFPRVREALLRRQRAFRELPGLIADGRDMGTVVFPDAPVKIFLDASSEERAHRRMLQLQEKGFSVNFERLLAEIKERDDRDRNRAVAPLVPAADALVLDSTTLSIEQVIEKALQYARQKLALA | soluble |
| MTALEVLGGWPVPAAAAAVIGPAGVLATHGDTARVFALASVTKPLVARAAQVAVEEGVVNLDTPAGPPGSTVRHLLAHTSGLAMHSDQALARPGTRRMYSNYGFTVLAESVQRESGIEFGRYLTEAVCEPLGMVTTRLDGGPAAAGFGATSTVADLAVFAGDLLRPSTVSAQMHADATTVQFPGLDGVLPGYGVQRPNDWGLGFEIRNSKSPHWTGECNSTRTFGHFGQSGGFIWVDPKADLALVVLTARDFGDWALDLWPAISDAVLAEYTLEHHHHHH | soluble |

Source: the DeepSol protein solubility set
